Consider one molecule from patent publication US20200261490A1 (AARHUS UNIVERSITET, published 2020).

In test [1] the target is T1, recombinant human stanniocalcin 1, C-terminally myc-his-tagged (human, UniProt P52823 34-247). Nature of the test: SPR (Biacore T200); PAPP-A captured by immobilised mAb 234-5, purified STC1 as analyte, global 1:1 Langmuir fit. As for the experimental part:
(§1) Surface plasmon resonance experiments were carried out on a Biacore T200 (GE Healthcare). Using amine coupling, purified monoclonal antibody 234-5 was immobilized in flow cells (FC) 3 and 4 of a Series S CM5 Sensor Chip (GE Healthcare). To reach a coupling density of 5,000 response units (RU), the antibody was diluted to 30 μg ml⁻¹ in 10 mM sodium acetate, pH 4.75. Remaining active groups were blocked by a 7 min injection of 1 M ethanolamine, pH 8.0. […] The association phase was 180 s, followed by a 1,000 s dissociation phase. At the end of each binding cycle, both surfaces were regenerated by a 40 s injection of 0.1 M glycine, pH 2.5, and 0.5 M guanidine hydrochloride. […] Binding analysis was performed at 25° C., and data were collected at a rate of 10 Hz. Recorded signals were subtracted the background signal, as determined by the response obtained from the reference cell. Global fitting of a 1:1 Langmuir model was performed, using the Biacore T200 Evaluation Software, version 1.0.
In general terms: In SPR one partner is held on a chip, and binding of the other changes the refractive index at the surface.

Test [2] addresses T1, recombinant human stanniocalcin 1, …. Nature of the test: SPR (Biacore T200), PAPP-A captured by immobilised mAb 234-5, STC1 injected at 0.20-6.26 nM, global 1:1 Langmuir fit. How it is done: as §1

B1: recombinant human PAPP-A (pregnancy-associated plasma protein-A, pappalysin-1) (enzyme)
chain: EARGATEEPSPPSRALYFSGRGEQLRLRADLELPRDAFTLQVWLRAEGGQRSPAVITGLYDKCSYISRDRGWVVGIHTISDQDNKDPRYFFSLKTDRARQVTTINAHRSYLPGQWVYLAATYDGQFMKLYVNGAQVATSGEQVGGIFSPLTQKCKVLMLGGSALNHNYRGYIEHFSLWKVARTQREILSDMETHGAHTALPQLLLQENWDNVKHAWSPMKDGSSPKVEFSNAHGFLLDTSLEPPLCGQTLCDNTEVIASYNQLSSFRQPKVVRYRVVNLYEDDHKNPTVTREQVDFQHHQLAEAFKQYNISWELDVLEVSNSSLRRRLILANCDISKIGDENCDPECNHTLTGHDGGDCRHLRHPAFVKKQHNGVCDMDCNYERFNFDGGECCDPEITNVTQTCFDPDSPHRAYLDVNELKNILKLDGSTHLNIFFAKSSEEELAGVATWPWDKEALMHLGGIVLNPSFYGMPGHTHTMIHEIGHSLGLYHVFRGISEIQSCSDPCMETEPSFETGDLCNDTNPAPKHKSCGDPGPGNDTCGFHSFFNTPYNNFMSYADDDCTDSFTPNQVARMHCYLDLVYQGWQPSRKPAPVALAPQVLGHTTDSVTLEWFPPIDGHFFERELGSACHLCLEGRILVQYASNASSPMPCSPSGHWSPREAEGHPDVEQPCKSSVRTWSPNSAVNPHTVPPACPEPQGCYLELEFLYPLVPESLTIWVTFVSTDWDSSGAVNDIKLLAVSGKNISLGPQNVFCDVPLTIRLWDVGEEVYGIQIYTLDEHLEIDAAMLTSTADTPLCLQCKPLKYKVVRDPPLQMDVASILHLNRKFVDMDLNLGSVYQYWVITISGTEESEPSPAVTYIHGSGYCGDGIIQKDQGEQCDDMNKINGDGCSLFCRQEVSFNCIDEPSRCYFHDGDGVCEEFEQKTSIKDCGVYTPQGFLDQWASNASVSHQDQQCPGWVIIGQPAASQVCRTKVIDLSEGISQHAWYPCTISYPYSQLAQTTFWLRAYFSQPMVAAAVIVHLVTDGTYYGDQKQETISVQLLDTKDQSHDLGLHVLSCRNNPLIIPVVHDLSQPFYHSQAVRVSFSSPLVAISGVALRSFDNFDPVTLSSCQRGETYSPAEQSCVHFACEKTDCPELAVENASLNCSSSDRYHGAQCTVSCRTGYVLQIRRDDELIKSQTGPSVTVTCTEGKWNKQVACEPVDCSIPDHHQVYAASFSCPEGTTFGSQCSFQCRHPAQLKGNNSLLTCMEDGLWSFPEALCELMCLAPPPVPNADLQTARCRENKHKVGSFCKYKCKPGYHVPGSSRKSKKRAFKTQCTQDGSWQEGACVPVTCDPPPPKFHGLYQCTNGFQFNSECRIKCEDSDASQGLGSNVIHCRKDGTWNGSFHVCQEMQGQCSVPNELNSNLKLQCPDGYAIGSECATSCLDHNSESIILPMNVTVRDIPHWLNPTRVERVVCTAGLKWYPHPALIHCVKGCEPFMGDNYCDAINNRAFCNYDGGDCCTSTVKTKKVTPFPMSCDLQGDCACRDPQAQEHSRKDLRGYSHG
notes: Secreted from transfected HEK293T cells and used in culture medium; also called wt PAPP-A; huPAPP-A
One may read the Kd as the concentration at which binding is half-saturated. In general, koff refers to the rate constant with which the complex falls apart. What is called kon is a measure of how fast the partners come together. On to B1, for which the Kd in test [1] was 0.075 nM. In test [2], the Kd came out at 0.0749 nM, the koff amounted to 0.000208 s⁻¹ and the on-rate constant (kon) was found to be 2.78e+06 M⁻¹ s⁻¹.
